# In patent publication US20100247589A1:
# Where no end group is shown, it is not given here. The star is where a group is joined. Biotin = O=C1N[C@H]2[C@H](CS[C@H]2CCCCC(=O)*)N1
# Biological target: tooth pellicle (thin film derived from salivary glycoproteins, formed in a human mouth) (human)
# Test: phage ELISA on pellicle-coated bovine enamel, anti-M13-HRP, normalized to internal control
row,O.D.450 (normalized),Binder
1,2.5,TTYHYKNIYQESYQQRNPAV [DenP3]

# Biological target: tooth pellicle (thin film derived from salivary glycoproteins, formed in a human mouth) (human)
# Test: phage ELISA on 30 min pellicle-coated bovine enamel, anti-M13-HRP, normalized to DenP3; no-phage control 0.094
row,Binder,O.D.450 (normalized)
1,GYQPHYVDHTIGWQPMIRPN [DenP104],0.79
2,TTYHYKNIYQESYQQRNPAV [DenP3],1
3,FPSKWYNHHRHITGHV [DenP112],0.413
4,WHEPHQFSGENTDYSSSMGT [DenP109],0.716
5,NLHSPWPSHAAHHWST [DenP118],0.641
6,GYGQYVSQQTWAHSNK [DenP115],0.501
7,GGMGALESYRQWNHLA [DenP113],1.35
8,EFYPFAEVPPEKSGIGRQVF [DenP102],0.52
9,GINKGQRPPWESWHEN [DenP114],0.703
10,NQQMKLVPQHWHRAQP [DenP119],1.05
11,HDHLSWWGQFDRQNLL [DenP116],1.05
12,SFSWHRGDWELGHQSKTMGM [DenP106],1.52
13,MPGHQESIKVQNWNRV [DenP117],0.433
14,DGYKLQTSLDWQMWNP [DenP111],1.05

# Second part, the binder after the results:
row,O.D.450 (normalized),Binder
1,0.467,AIEYQHSATTPWTMRTRLPP [DenP101]
2,0.879,GVHQYSRPTVPSYLWTSGQH [DenP103]
3,0.47,QFNQTSHSFMHGTSGYVPGK [DenP105]
4,1.15,THGNKHQSWTYPSEINHKNY [DenP108]
5,0.726,SMWHDITKRYRNPSEMVSAY [DenP107]

# Biological target: tooth pellicle (thin film derived from salivary glycoproteins, formed in a human mouth) (human)
# Test: ELISA, 20 uM biotinylated peptide on pellicle-coated bovine enamel, streptavidin-HRP, normalized to DenP03; no-peptide control -0.001
row,Binder,O.D.450 (normalized)
1,SSRPQVPDYLSPTHQKKAFLEIPTK(Biotin) [DenP29-A],0.468
2,SSRPTYQGVPSWPAVIDDAIRRK(Biotin) [DenP19-A],0.712
3,SSRPIYPNESMSTSNVRGPYHPK(Biotin) [DenP22-A],0.354
4,SSRPHKNENIMQYNVNDRWHITPAK(Biotin) [DenP32-A],1.14
5,SSRPELDHDSRHYMNGLQRKVTK(Biotin) [DenP15-A],0.46
6,SSRPAPPTYQTASYPHNLPSKRKMK(Biotin) [DenP28-A],0.811
7,SSRPTTGSSSQADTSASMSIVPAHK(Biotin) [DenP17-A],0.143
8,SSRPEFPYYNDNPPNPERHTLRK(Biotin) [DenP7-A],0.356
9,SSRPQAAQVHMMQHSRPTTK(Biotin) [DenP13-A],0.699
10,SSRPFDGIGLGTATRHQNRK(Biotin) [DenP12-A],0.475
11,SSRPSEARARTFNDHTTPMPIIK(Biotin) [DenP14-A],0.269
12,SSRPHDPNHLTHQARTIYRNANHTK(Biotin) [DenP23-A],0.85
13,SSRPDLGTFPNRTLKMAAHK(Biotin) [DenP11-A],0.454

# Next, values leading:
row,O.D.450 (normalized),Binder
1,0.154,SSRPNGNNHTDIPNRSSYTGGSFAK(Biotin) [DenP1-A]
2,0.273,SSRPTMTNHVYNSYTEKHSSTHRSK(Biotin) [DenP2-A]
3,0.803,SSRPVEPATKNMREARSSTQMRRIK(Biotin) [DenP4-A]
4,1,SSRPTTYHYKNIYQESYQQRNPAVK(Biotin) [DenP3-A]
5,0.309,SSRPGPQHVLMQDTHQGYAFDNK(Biotin) [DenP16-A]
6,0.59,SSRPVNPNWVETQALHQPPGNTK(Biotin) [DenP20-A]
7,0.462,SSRPYLLPKDQTTAPQVTPIVQHKK(Biotin) [DenP5-A]

# Biological target: tooth pellicle (thin film derived from salivary glycoproteins, formed in a human mouth) (human)
# Test: ELISA titration of biotinylated peptide on pellicle-coated bovine enamel, streptavidin-alkaline phosphatase, 4-MUP fluorescence, Scatchard plot
row,MB50 [µM],Binder
1,25,SSRPHKNENIMQYNVNDRWHITPAK(Biotin) [DenP32-A]
2,28,SSRPTTYHYKNIYQESYQQRNPAVK(Biotin) [DenP3-A]
